The text below walks through data of PMC3441139.

The target in this test is N-terminal EGFP fusion to zebrafish P2X4 crystallized construct (EGFP-ΔP2X4-A) (Danio rerio) (UniProt F8W463). The test is described as follows: SEC. For orientation: In gel filtration, larger molecules generally elute earlier.

One may read the stoichiometry N as a count of units in the complex or per binding partner. For the substance “N-terminal EGFP fusion to zebrafish P2X4 crystallized construct (EGFP-ΔP2X4-A) (from UniProt F8W463 1-389) (receptor)”, the stoichiometry N is 3.
